Reference: patent US20100095387A1, “METHODS AND REAGENTS FOR SCREENING NEW DRUGS AND FOR TREATING ION PUMP ASSOCIATED DISORDERS AND DISEASES” (priority 2005, published 2010)
“Also recorded” adds a separate entry of the source.

Legend:
[1] = test system: hippocampal neurons; assay: Fos expression in hippocampal neurons; type: cell-based, mouse; conditions: 1 nM C-Ag15 with 50 pM C-Ag95z8
Method: (§1) Mouse cortical cultures were prepared from newborn or 1-d-old ICR strain mice (Harlan) as described previously (Hilgenberg et al., 1999). For the first 24 h after plating, cells were maintained in neural basal medium (NBM) plus B27 supplements (Invitrogen), and in nonneuronal cell-conditioned NBM (cNBM) plus B27 thereafter, at 37° C. in humidified 5% CO2 atmosphere. To further reduce proliferation of nonneuronal cells, cultures on glass coverslips used for histology were treated with 5 μM 5-fluoro-2-deoxyuridine (Sigma-Aldrich) 3-4 d after plating. Hippocampal and cerebellar cultures were prepared in a similar manner. Experiments were performed on 10-14-d-old cultures. Agrin-deficient neuron cultures were prepared from cortices of embryonic d 18-19 fetuses resulting from matings between mice heterozygous for a mutation in the agrin gene (Gautam et al., 1996). Cultures were prepared and genotyped as described previously (Li et al., 1999), and were maintained as above.
(§2) Fos expression in cortical cultures was measured by in situ enzyme-linked immunoassay (Hilgenberg et al., 1999). In brief, 11-14-d-old neuronal cultures were treated for 10 min with agrin or other agent diluted in NBM or PBS, then washed in cNBM and returned to the incubator for 2 h. […] The level of Fos expression was determined by monitoring conversion of p-nitrophenyl phosphate to a soluble yellow reaction product at 405 nm. […]

[2] = target: rat α3 subunit of the Na+/K+-ATPase (Rattus norvegicus, UniProt P06687); assay: Na+ imaging of non-neuronal cells transfected with pRcα3; type: cell-based
[3] = test system: chick skeletal myotubes; assay: Fos expression in chick muscle cultures; type: cell-based; conditions: 1 nM C-Ag15 with 50 pM C-Ag95z8
Method: Chick muscle cultures were prepared from pectoral muscles of 10-11-d-old White Leghorn chick embryos as described previously (Hilgenberg et al., 1999). Experiments were performed on 4-6-d-old cultures.
Fos expression in cortical cultures was measured by in situ enzyme-linked immunoassay (Hilgenberg et al., 1999). In brief, 11-14-d-old neuronal cultures were treated for 10 min with agrin or other agent diluted in NBM or PBS, then washed in cNBM and returned to the incubator for 2 h. Cultures were rinsed in PBS, fixed in ice cold 4% PFA, and blocked in PBS containing 0.1% Triton X-100 and 4% BSA (PBSTB) before being incubated in a primary rabbit antibody against Fos (Ab-2; Oncogene Research Products) and secondary goat antibody against […] conjugated to alkaline phosphatase (Southern Biotechnology Associates, Inc.). The level of Fos expression was determined by monitoring conversion of p-nitrophenyl phosphate to a soluble yellow reaction product at 405 nm.
To learn whether inhibition of agrin signaling by C-Ag15 might extend to other neurons or even muscle, mouse hippocampal and cerebellar neurons or chick skeletal myotubes were incubated with 50 pM C-Ag95z8 alone or in the presence of 1 nM C-Ag15, a concentration that blocks activity in cortical neurons. […] However, co-incubation with C-Ag15 inhibited Fos expression in the neurons, but had no effect on muscle. […]

[4] = test system: cardiac myocytes; assay: Ca2+ (Fura-2) and Na+ imaging of cultured cardiac myocytes; conditions: 10 fold excess of C-Ag15
[5] = test system: chick myotubes; assay: AChR clustering assay; type: cell-based; conditions: 1 nM C-Ag15 with 50 pM C-Ag95z8 overnight
[6] = test system: cultured cortical neurons; assay: Glutamate excitotoxic injury of cultured cortical neurons, LDH in growth medium; type: cell-based; conditions: 10 minutes glutamate with C-Ag15; preliminary data
Method: FIG. 15. C-Ag15 is neuroprotective for excitotoxic injury. Cultured cortical eurons were treated for 10 minutes with the excitatory neurotransmitter glutamate in the presence of the indicated concentration of C-Ag15 and degree of neuronal injury assessed by monitoring the level of LDH in the growth medium. Data are expressed as a percentage of the LDH in sister cultures treated with glutamate alone. The neuroprotective effect of C-Ag15 is dose-dependent.

[7] = target: T1, α3 subunit of the Na+/K+-ATPase (Mus musculus, UniProt Q6PIC6); assay: Chemical cross-linking of agrin fragments to cortical neurons, immunoprecipitation and immunoblot; type: binding
T1 construct: a 110 kDa band characteristic of the native α3Na+/K+-ATPase; endogenous in cells; host or cells: primary mouse cortical neurons, 10-16 days in culture
Method: Membrane impermeant chemical cross-linking agents BS^3 and DMA were used to stabilize the bond between agrin and its binding sites on cell surface membranes. Cultured neurons were washed briefly in PBS containing 10 mM EDTA followed by preincubation with one or more agrin fragment in PBS^2+ for 30 minutes at room temperature and then cooled on ice prior to addition of a 10× solution of cross-linking agent to a final concentration of 0.1 mM. The cross-linking reaction was allowed to proceed for 30 minutes after which any unreacted cross-linker was quenched and removed by washing with ice cold PBS^2+ containing 50 mM ethanolamine. For immunoblot analysis, cells were scraped into ice-cold TI buffer (20 mM Tris, pH 7.4; 10 mM EDTA; protease inhibitors (Sigma, P8340)) then Dounce homogenized and membrane fraction recovered by centrifugation. For the immunoprecipitation studies, cells were scraped and homogenized in TI buffer containing 150 mM NaCl and 0.5% Triton X-100. Cell extracts were cleared by centrifugation and aliquots of the detergent soluble fraction incubated with the appropriate antibody at 4° C. overnight. Antigen-antibody complexes were precipitated with either protein A or protein G and resuspended in SDS-PAGE sample buffer for immunoblot analysis.
Ligand induced phosphorylation is a common first step in membrane receptor activation and inhibition of tyrosine kinase activity blocks agrin signalling in central nervous system neurons. To determine if agrin induced phosphorylation of the putative agrin receptor, membranes from neurons cross-linked to C-Ag208 or C-Ag15, alone or in combination, were dissolved, in a detergent-containing buffer and aliquots immunoprecipitated with RAg1 or the phosphotyrosine antibody mAb4G10 (Upstate). Immunoprecipitated proteins were analyzed by immunoblotting with a monoclonal antibody (9E10.2, Invitrogen) against the COON-terminal myc tag on the agrin fragments.
To confirm the results of the mass spectrometry the ability of different α-subunit antibodies to recognize the putative agrin-Na^+/K^+-ATPase complex was tested. […]

[8] = target: α3Na+/K+-ATPase (Mus musculus, UniProt Q6PIC6); assay: Na+ imaging (SBFI-AM) of cultured cortical cells; type: cell-based
[9] = test system: cerebellar neurons; assay: Fos expression in cerebellar neurons; type: cell-based, mouse; conditions: 1 nM C-Ag15 with 50 pM C-Ag95z8
Method: as §1, §2

B1: C-Ag15: 15-kD COOH-terminal fragment of agrin created by deleting 37 amino acids from the NH2 terminus of C-Ag20, SEQ. ID NO. 3 (protein)
chain: MDPWIGKAAERADYMALAIVDGHLQLSYDLASQPVVLRSTVKVNTNRWLRVRAHREHREGSLQVGNEAPVTSSSPLGATQLDTDGALWLGGLQKLPVGQPLPKAYGTGFVGCLRNVVGHRQLHLLEDAVTKPELRPCPTLNSKLGPEQKLISEEDLNSAVDHHHHHH
modifications: Synthetically produced sequence
- effect on C-Ag95z8-induced Fos expression [1]: completely inhibited
- antagonism of active agrin fragments [2]: effective antagonist
- intracellular Na+ in cells expressing the α3 subunit [2]: unaffected
- effect on C-Ag95z8-induced Fos expression [3]: no effect
- antagonism of C-Ag208 response [4]: effective agrin antagonist; also recorded: effectively blocks
- effect on AChR clustering activity of C-Ag95z8 [5]: no effect
- neuronal injury, LDH in growth medium [6]: neuroprotective; also recorded: dose-dependent
- effect on C-Ag208 binding and phosphorylation ([7]; cross-linked in combination with C-Ag208): blocking both binding and phosphorylation
- tyrosine phosphorylation of the cross-linked complex ([7]; immunoprecipitation with phosphotyrosine antibody mAb4G10): did not induce phosphorylation
- effect on Na+ increase induced by active agrin fragments [8]: blocked
- effect on ouabain-induced increase in neuronal Na+ [8]: blocked; also recorded: significantly reduced
- neuronal intracellular Na+ [8]: no significant effect
- effect on C-Ag95z8-induced Fos expression [9]: completely inhibited
